Laboratory results taken from US20190194299A1.

Assays:
[1] = target: Human DPP4 on stable 293T cells (293T-hDPP4) (human) (UniProt P27487)
[2] = target: S1(349-590)-hFc (MERS-CoV; human) (UniProt K9N5Q8); assay: BLI (Octet), wild type RBD-hFc

Substance	EC50 [1]	Kd [2]
S1(349-590)-hFc (from UniProt K9N5Q8 349-590) (Fc fusion)	0.015 mg/L	
Recombinant soluble human DPP4 (from UniProt P27487 29-766) (receptor)		0.0214 µM
